Measured values: patent publication US20210261685A1 (Alector, published 2021)
Positions count from the first letter of the chain named.

B1: MTK-35 (antibody, human IgG1, V domains shown)
VH: QVLLQQSGPELVKPGASVQLSCKASDYTFTSYDIHWVKQRPGQGLEWIGWIYPRDGYTKYNEIFKGKATLTVDTSSTTAYMELHSLTSEDSAVYFCARAYYTNWYYFDYWGQGTTLTVSS
VL: EIVLTQSPTTMAASPGEKITITCRASSSISSHYLHWYQQKPGFSPKLLIYRTSNLASGVPARFSGSGSGTSYSLTIGTMEAEDVATYYCQQGSTIPLTFGAGTKLVLK
B2: MTK-32 (antibody, human IgG1, V domains shown)
VH: QIQLVQSGPELKKPGETVKISCKASGYTFTSYGMSWVHQAPGKGLKWLGWINTYSGVPTYADDFRGRFAFSLDTSVSTASLEINNLQNEDTATYFCAREDNWAWFAYWGQGTLVTVST
VL: QIVLSQSPAILSASPGEKVTMTCRATSSVGYMHWYQRKPGSSPKPWIYATSNLASGVPARFSGSGSGTSYSLTISRVEAEDAATYYCQQWSSNPRTFGGGTKLEIK
B3: MTK-02 (antibody, human IgG1, V domains shown)
VH: QIQLVQSGPELKQPGETVKISCKASGYTFTDYGVNWVKQAPGKGLKWMGWINTYSGEPTYAGDFKGRFAFSLESSASTAFLQINNLKNEDMATYFCARRVRYWYFDVWGAGTSVTVSS
VL: B2 VL with K18R, T26N, G30S, R37Q, G63A, I74V, S91G, R95F, G99S
B4: MTK-08 (antibody, human IgG1, V domains shown)
VH: B3 VH with Q13K, D31N, V34M, S55T, G62D, S74T, F80Y, M91T, R99E, S113T
VL: B2 VL with G30S, Y35F, R37Q, T84A, Q89H, S92G
B5: MTK-36 (antibody, human IgG1, V domains shown)
VH: QVTLKESGPGILQPSQTLSLTCSFSGFSLSTFGMGVGWIRQPSGKGLEWLAHIWWYDDKYYEPALKSRLTISKDSSKNQVFLKIANVDTADTATYYCARIYYGTSYRYFDVWGTGTTVTVSS
VL: B2 VL with S14F, G30R, R37Q, S51Y, A54T, Q88H, R95Y
B6: MTK-14 (antibody, human IgG1, V domains shown)
VH: QIQLVQSGPELKKPGETVKISCKASGYTFTNYGMNWVKQAPGKDLQWMGWINTYTGEPTYADDFTGRFAFSLETSASTAYLQINNLKNEDTATYFCAKGGHYAWFAYWGQGTLVTVSA
VL: B2 VL with A25S, T26S, G30S, R37Q, A59G, S91G

Each binder was assayed against T1, human MerTK endogenously expressed on cells (SK-MEL-5 cells; human macrophages) (human, UniProt Q12866 21-999) (assay: flow cytometry on SK-MEL-5 cells, Prism fit).
T1 construct: also called MerTK on SK-MEL-5
T1 sequence: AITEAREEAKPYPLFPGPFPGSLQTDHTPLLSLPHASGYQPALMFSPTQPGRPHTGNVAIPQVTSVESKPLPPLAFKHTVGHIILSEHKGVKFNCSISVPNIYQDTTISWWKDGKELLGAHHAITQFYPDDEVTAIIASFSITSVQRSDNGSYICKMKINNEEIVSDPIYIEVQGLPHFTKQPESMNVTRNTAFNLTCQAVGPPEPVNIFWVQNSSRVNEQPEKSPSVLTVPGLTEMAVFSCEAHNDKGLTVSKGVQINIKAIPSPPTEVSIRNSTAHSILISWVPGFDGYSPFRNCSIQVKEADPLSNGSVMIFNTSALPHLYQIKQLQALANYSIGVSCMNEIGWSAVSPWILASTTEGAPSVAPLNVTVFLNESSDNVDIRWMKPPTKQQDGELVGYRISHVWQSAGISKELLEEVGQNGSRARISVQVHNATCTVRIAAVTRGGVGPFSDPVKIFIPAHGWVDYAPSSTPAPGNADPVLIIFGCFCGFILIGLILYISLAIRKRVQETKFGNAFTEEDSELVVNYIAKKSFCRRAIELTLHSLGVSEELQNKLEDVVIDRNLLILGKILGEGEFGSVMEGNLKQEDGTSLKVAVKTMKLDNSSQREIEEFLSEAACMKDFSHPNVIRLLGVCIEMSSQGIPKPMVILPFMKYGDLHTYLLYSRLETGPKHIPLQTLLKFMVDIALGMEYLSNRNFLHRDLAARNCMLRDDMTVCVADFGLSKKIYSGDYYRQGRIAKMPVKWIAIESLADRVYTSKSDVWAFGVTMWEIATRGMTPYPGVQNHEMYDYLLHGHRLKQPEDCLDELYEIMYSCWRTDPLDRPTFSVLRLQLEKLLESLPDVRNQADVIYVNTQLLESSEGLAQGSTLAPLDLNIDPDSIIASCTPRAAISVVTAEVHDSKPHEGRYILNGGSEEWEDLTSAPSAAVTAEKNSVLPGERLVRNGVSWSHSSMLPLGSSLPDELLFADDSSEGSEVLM
Method: To determine whether recombinant anti-human MerTK antibodies of the present disclosure bind to human MerTK endogenously expressed on SK-MEL-5 cells and to CHO cells overexpressing mouse MerTK (CHO-muMerTK OE cells), the following experiments were performed. SK-MEL-5 cells and CHO-muMerTK OE cells were plated at 40,000 cells/well. Anti-MerTK antibodies were titrated to a final concentration range of between 66.6 nM to 4 pM and then added to the cells. After 30 min on ice, cells were washed and then stained with APC-conjugated mouse anti-human Kappa antibody (Southern Biotech Cat #9230-11, Birmingham, Ala.) and a viability die (Life Technologies) in the presence of Fc block solution on ice for 30 minutes, and then washed twice with cold FACS buffer (2% FBS in PBS). Cells were fixed with 4% paraformaldehyde in PBS. Stained cells were acquired on a BD FACS Canto II cytometer and the mean fluorescence intensity (MFI) was calculated with FlowJo software and K value was calculated with Prism software. […] A lower Kd value reflects higher binding of antibody to cells.

Binder | Kd [nM]
B1 | 1.29
B2 | 0.4
B3 | 0.024
B4 | 0.079
B5 | 1.42
B6 | 0.021

Target: T2, cyno MerTK extracellular domain (ECD), recombinant (cynomolgus monkey, UniProt Q12866 21-505 (human entry))
T2 construct: also called cynomolgus MerTK; not shown: polyHis tag or TEVS/Thrombin/murine IgG2a Fc tag
T2 chain: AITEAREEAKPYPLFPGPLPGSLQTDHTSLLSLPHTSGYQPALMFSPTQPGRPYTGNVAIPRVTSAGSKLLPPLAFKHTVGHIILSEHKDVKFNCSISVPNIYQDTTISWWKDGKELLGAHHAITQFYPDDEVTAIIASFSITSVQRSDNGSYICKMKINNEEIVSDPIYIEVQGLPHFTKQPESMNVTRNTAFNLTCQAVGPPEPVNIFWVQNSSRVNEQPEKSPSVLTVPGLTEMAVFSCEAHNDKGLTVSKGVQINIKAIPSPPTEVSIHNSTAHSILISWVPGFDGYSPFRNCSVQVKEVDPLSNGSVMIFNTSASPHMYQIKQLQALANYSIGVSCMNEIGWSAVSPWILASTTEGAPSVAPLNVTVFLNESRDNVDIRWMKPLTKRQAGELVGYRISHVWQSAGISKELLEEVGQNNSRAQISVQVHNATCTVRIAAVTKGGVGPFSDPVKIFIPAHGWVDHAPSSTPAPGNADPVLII
Experiment: SPR, Carterra LSA, antibody immobilised
In short: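 Anti-MerTK antibodies diluted to 10 μg/ml in 10 mM Acetate, pH 4.25 were amine-coupled in a 96-spot array onto an HC200M chip activated with MES/sulfo-NHS/EDC, then blocked with 1M Ethanolamine pH 8.5. On a Carterra LSA, recombinant MerTK extracellular domain was injected at 33.3, 100, and 300 nM in HBS-TE with 0.5 mg/ml BSA, lowest to highest without regeneration. KD came from fitted k-on and k-off.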

Binder | Kd [nM]
B1 | 13
B2 | 107
B3 | 24
B4 | 42
B5 | 5.9
B6 | 53
